*1 amine or outer side, *2 acyl side, *3 side chain or, on linkers, in order; H or OH if unused. [ ]: non-standard residue; d: D form. TyrEtNAc = L-tyrosine O-ethyl acetamide, (S)-3-(4-(2-acetamidoethoxy)phenyl)-2-aminopropanoic acid, CC(=O)NCCOc1ccc(C[C@H](N[*:1])C(=O)[*:2])cc1; Pro(trans-4-NH2) = O=C([C@@H]1C[C@@H](N[*:3])CN1[*:1])[*:2]; Bip(4'-COOH) = N[C@@H](Cc1ccc(-c2ccc(C(=O)O)cc2)cc1)C(=O)O; 1Nal(3S-Me) = C[C@@H](c1cccc2ccccc12)[C@H](N)C(=O)O; Phe(4-COOH) = N[C@@H](Cc1ccc(C(=O)O)cc1)C(=O)O; h3Pal(5-CN) = N#Cc1cncc(CC[C@H](N)C(=O)O)c1; 1Nal = N[C@@H](Cc1cccc2ccccc12)C(=O)O; hTyr = N[C@@H](CCc1ccc(O)cc1)C(=O)O; dDab = NCC[C@@H](N)C(=O)O; Orn = NCCC[C@H](N)C(=O)O; dNMeA = CN[C@H](C)C(=O)O; Nva = CCC[C@H](N)C(=O)O; Dap = NC[C@H](N)C(=O)O; Aib = CC(C)(N)C(=O)O
B1: SEQ ID NO: 95 (peptide)
peptide: cyclo([TyrEtNAc]W[Phe(4-COOH)]G[Pro(trans-4-NH2)][1Nal(3S-Me)]D[dNMeA]G[Bip(4'-COOH)][1Nal]L[Aib]G)
SMILES: CC(=O)NCCOc1ccc(C[C@@H]2NC(=O)CNC(=O)C(C)(C)NC(=O)[C@H](CC(C)C)NC(=O)[C@H](Cc3cccc4ccccc34)NC(=O)[C@H](Cc3ccc(-c4ccc(C(=O)O)cc4)cc3)NC(=O)CNC(=O)[C@@H](C)N(C)C(=O)[C@H](CC(=O)O)NC(=O)[C@H]([C@@H](C)c3cccc4ccccc34)NC(=O)[C@@H]3C[C@@H](N)CN3C(=O)CNC(=O)[C@H](Cc3ccc(C(=O)O)cc3)NC(=O)[C@H](Cc3c[nH]c4ccccc34)NC2=O)cc1
B2: SEQ ID NO: 96 (peptide)
peptide: cyclo([TyrEtNAc]W[Phe(4-COOH)]G[Pro(trans-4-NH2)][1Nal(3S-Me)]D[dNMeA]G[Bip(4'-COOH)][1Nal]L[Aib][hTyr])
SMILES: CC(=O)NCCOc1ccc(C[C@@H]2NC(=O)[C@H](CCc3ccc(O)cc3)NC(=O)C(C)(C)NC(=O)[C@H](CC(C)C)NC(=O)[C@H](Cc3cccc4ccccc34)NC(=O)[C@H](Cc3ccc(-c4ccc(C(=O)O)cc4)cc3)NC(=O)CNC(=O)[C@@H](C)N(C)C(=O)[C@H](CC(=O)O)NC(=O)[C@H]([C@@H](C)c3cccc4ccccc34)NC(=O)[C@@H]3C[C@@H](N)CN3C(=O)CNC(=O)[C@H](Cc3ccc(C(=O)O)cc3)NC(=O)[C@H](Cc3c[nH]c4ccccc34)NC2=O)cc1
B3: SEQ ID NO: 99 (peptide)
peptide: cyclo([TyrEtNAc]W[Phe(4-COOH)]G[Pro(trans-4-NH2)][1Nal(3S-Me)]D[dNMeA]G[Bip(4'-COOH)][1Nal][Orn][Aib][hTyr])
SMILES: CC(=O)NCCOc1ccc(C[C@@H]2NC(=O)[C@H](CCc3ccc(O)cc3)NC(=O)C(C)(C)NC(=O)[C@H](CCCN)NC(=O)[C@H](Cc3cccc4ccccc34)NC(=O)[C@H](Cc3ccc(-c4ccc(C(=O)O)cc4)cc3)NC(=O)CNC(=O)[C@@H](C)N(C)C(=O)[C@H](CC(=O)O)NC(=O)[C@H]([C@@H](C)c3cccc4ccccc34)NC(=O)[C@@H]3C[C@@H](N)CN3C(=O)CNC(=O)[C@H](Cc3ccc(C(=O)O)cc3)NC(=O)[C@H](Cc3c[nH]c4ccccc34)NC2=O)cc1
B4: SEQ ID NO: 98 (peptide)
peptide: cyclo([TyrEtNAc]W[Phe(4-COOH)]G[Pro(trans-4-NH2)][1Nal(3S-Me)]D[dNMeA]G[Bip(4'-COOH)][1Nal][Nva][dA]A)
SMILES: CCC[C@@H]1NC(=O)[C@H](Cc2cccc3ccccc23)NC(=O)[C@H](Cc2ccc(-c3ccc(C(=O)O)cc3)cc2)NC(=O)CNC(=O)[C@@H](C)N(C)C(=O)[C@H](CC(=O)O)NC(=O)[C@H]([C@@H](C)c2cccc3ccccc23)NC(=O)[C@@H]2C[C@@H](N)CN2C(=O)CNC(=O)[C@H](Cc2ccc(C(=O)O)cc2)NC(=O)[C@H](Cc2c[nH]c3ccccc23)NC(=O)[C@H](Cc2ccc(OCCNC(C)=O)cc2)NC(=O)[C@H](C)NC(=O)[C@@H](C)NC1=O
B5: SEQ ID NO: 97 (peptide)
peptide: cyclo([TyrEtNAc]W[Phe(4-COOH)]G[Pro(trans-4-NH2)][1Nal(3S-Me)]D[dNMeA]G[Bip(4'-COOH)][1Nal]L[dA]A)
SMILES: CC(=O)NCCOc1ccc(C[C@@H]2NC(=O)[C@H](C)NC(=O)[C@@H](C)NC(=O)[C@H](CC(C)C)NC(=O)[C@H](Cc3cccc4ccccc34)NC(=O)[C@H](Cc3ccc(-c4ccc(C(=O)O)cc4)cc3)NC(=O)CNC(=O)[C@@H](C)N(C)C(=O)[C@H](CC(=O)O)NC(=O)[C@H]([C@@H](C)c3cccc4ccccc34)NC(=O)[C@@H]3C[C@@H](N)CN3C(=O)CNC(=O)[C@H](Cc3ccc(C(=O)O)cc3)NC(=O)[C@H](Cc3c[nH]c4ccccc34)NC2=O)cc1
B6: SEQ ID NO: 122 (Example No. 122) (peptide)
peptide: cyclo([TyrEtNAc]W[Phe(4-COOH)]G[Pro(trans-4-NH2)][1Nal(3S-Me)]D[dNMeA]G[Bip(4'-COOH)]WG[dDab][h3Pal(5-CN)])
SMILES: CC(=O)NCCOc1ccc(C[C@@H]2NC(=O)[C@H](CCc3cncc(C#N)c3)NC(=O)[C@@H](CCN)NC(=O)CNC(=O)[C@H](Cc3c[nH]c4ccccc34)NC(=O)[C@H](Cc3ccc(-c4ccc(C(=O)O)cc4)cc3)NC(=O)CNC(=O)[C@@H](C)N(C)C(=O)[C@H](CC(=O)O)NC(=O)[C@H]([C@@H](C)c3cccc4ccccc34)NC(=O)[C@@H]3C[C@@H](N)CN3C(=O)CNC(=O)[C@H](Cc3ccc(C(=O)O)cc3)NC(=O)[C@H](Cc3c[nH]c4ccccc34)NC2=O)cc1
B7: SEQ ID NO: 121 (Example No. 121) (peptide)
peptide: cyclo([TyrEtNAc]W[Phe(4-COOH)]G[Pro(trans-4-NH2)][1Nal(3S-Me)]D[dNMeA]G[Bip(4'-COOH)]W[Dap][dNMeA][hTyr])
SMILES: CC(=O)NCCOc1ccc(C[C@@H]2NC(=O)[C@H](CCc3ccc(O)cc3)NC(=O)[C@@H](C)N(C)C(=O)[C@H](CN)NC(=O)[C@H](Cc3c[nH]c4ccccc34)NC(=O)[C@H](Cc3ccc(-c4ccc(C(=O)O)cc4)cc3)NC(=O)CNC(=O)[C@@H](C)N(C)C(=O)[C@H](CC(=O)O)NC(=O)[C@H]([C@@H](C)c3cccc4ccccc34)NC(=O)[C@@H]3C[C@@H](N)CN3C(=O)CNC(=O)[C@H](Cc3ccc(C(=O)O)cc3)NC(=O)[C@H](Cc3c[nH]c4ccccc34)NC2=O)cc1
B8: SEQ ID NO: 126 (Example No. 126) (peptide)
peptide: cyclo([TyrEtNAc]W[Phe(4-COOH)]G[Pro(trans-4-NH2)][1Nal(3S-Me)]D[dNMeA]G[Bip(4'-COOH)]WL[dDab][hTyr])
SMILES: CC(=O)NCCOc1ccc(C[C@@H]2NC(=O)[C@H](CCc3ccc(O)cc3)NC(=O)[C@@H](CCN)NC(=O)[C@H](CC(C)C)NC(=O)[C@H](Cc3c[nH]c4ccccc34)NC(=O)[C@H](Cc3ccc(-c4ccc(C(=O)O)cc4)cc3)NC(=O)CNC(=O)[C@@H](C)N(C)C(=O)[C@H](CC(=O)O)NC(=O)[C@H]([C@@H](C)c3cccc4ccccc34)NC(=O)[C@@H]3C[C@@H](N)CN3C(=O)CNC(=O)[C@H](Cc3ccc(C(=O)O)cc3)NC(=O)[C@H](Cc3c[nH]c4ccccc34)NC2=O)cc1
B9: SEQ ID NO: 128 (Example No. 128) (peptide)
peptide: cyclo([TyrEtNAc]W[Phe(4-COOH)]G[Pro(trans-4-NH2)][1Nal(3S-Me)]D[dNMeA]G[Bip(4'-COOH)]WS[dA][hTyr])
SMILES: CC(=O)NCCOc1ccc(C[C@@H]2NC(=O)[C@H](CCc3ccc(O)cc3)NC(=O)[C@@H](C)NC(=O)[C@H](CO)NC(=O)[C@H](Cc3c[nH]c4ccccc34)NC(=O)[C@H](Cc3ccc(-c4ccc(C(=O)O)cc4)cc3)NC(=O)CNC(=O)[C@@H](C)N(C)C(=O)[C@H](CC(=O)O)NC(=O)[C@H]([C@@H](C)c3cccc4ccccc34)NC(=O)[C@@H]3C[C@@H](N)CN3C(=O)CNC(=O)[C@H](Cc3ccc(C(=O)O)cc3)NC(=O)[C@H](Cc3c[nH]c4ccccc34)NC2=O)cc1
B10: SEQ ID NO: 127 (Example No. 127) (peptide)
peptide: cyclo([TyrEtNAc]W[Phe(4-COOH)]G[Pro(trans-4-NH2)][1Nal(3S-Me)]D[dNMeA]G[Bip(4'-COOH)]W[Orn][Aib][hTyr])
SMILES: CC(=O)NCCOc1ccc(C[C@@H]2NC(=O)[C@H](CCc3ccc(O)cc3)NC(=O)C(C)(C)NC(=O)[C@H](CCCN)NC(=O)[C@H](Cc3c[nH]c4ccccc34)NC(=O)[C@H](Cc3ccc(-c4ccc(C(=O)O)cc4)cc3)NC(=O)CNC(=O)[C@@H](C)N(C)C(=O)[C@H](CC(=O)O)NC(=O)[C@H]([C@@H](C)c3cccc4ccccc34)NC(=O)[C@@H]3C[C@@H](N)CN3C(=O)CNC(=O)[C@H](Cc3ccc(C(=O)O)cc3)NC(=O)[C@H](Cc3c[nH]c4ccccc34)NC2=O)cc1
B11: SEQ ID NO: 123 (Example No. 123) (peptide)
peptide: cyclo([TyrEtNAc]W[Phe(4-COOH)]G[Pro(trans-4-NH2)][1Nal(3S-Me)]D[dNMeA]G[Bip(4'-COOH)]WG[dDab][hTyr])
SMILES: CC(=O)NCCOc1ccc(C[C@@H]2NC(=O)[C@H](CCc3ccc(O)cc3)NC(=O)[C@@H](CCN)NC(=O)CNC(=O)[C@H](Cc3c[nH]c4ccccc34)NC(=O)[C@H](Cc3ccc(-c4ccc(C(=O)O)cc4)cc3)NC(=O)CNC(=O)[C@@H](C)N(C)C(=O)[C@H](CC(=O)O)NC(=O)[C@H]([C@@H](C)c3cccc4ccccc34)NC(=O)[C@@H]3C[C@@H](N)CN3C(=O)CNC(=O)[C@H](Cc3ccc(C(=O)O)cc3)NC(=O)[C@H](Cc3c[nH]c4ccccc34)NC2=O)cc1
B12: SEQ ID NO: 124 (Example No. 124) (peptide)
peptide: cyclo([TyrEtNAc]W[Phe(4-COOH)]G[Pro(trans-4-NH2)][1Nal(3S-Me)]D[dNMeA]G[Bip(4'-COOH)]WL[dA]A)
SMILES: CC(=O)NCCOc1ccc(C[C@@H]2NC(=O)[C@H](C)NC(=O)[C@@H](C)NC(=O)[C@H](CC(C)C)NC(=O)[C@H](Cc3c[nH]c4ccccc34)NC(=O)[C@H](Cc3ccc(-c4ccc(C(=O)O)cc4)cc3)NC(=O)CNC(=O)[C@@H](C)N(C)C(=O)[C@H](CC(=O)O)NC(=O)[C@H]([C@@H](C)c3cccc4ccccc34)NC(=O)[C@@H]3C[C@@H](N)CN3C(=O)CNC(=O)[C@H](Cc3ccc(C(=O)O)cc3)NC(=O)[C@H](Cc3c[nH]c4ccccc34)NC2=O)cc1
B13: SEQ ID NO: 125 (Example No. 125) (peptide)
peptide: cyclo([TyrEtNAc]W[Phe(4-COOH)]G[Pro(trans-4-NH2)][1Nal(3S-Me)]D[dNMeA]G[Bip(4'-COOH)]WL[dA][hTyr])
SMILES: CC(=O)NCCOc1ccc(C[C@@H]2NC(=O)[C@H](CCc3ccc(O)cc3)NC(=O)[C@@H](C)NC(=O)[C@H](CC(C)C)NC(=O)[C@H](Cc3c[nH]c4ccccc34)NC(=O)[C@H](Cc3ccc(-c4ccc(C(=O)O)cc4)cc3)NC(=O)CNC(=O)[C@@H](C)N(C)C(=O)[C@H](CC(=O)O)NC(=O)[C@H]([C@@H](C)c3cccc4ccccc34)NC(=O)[C@@H]3C[C@@H](N)CN3C(=O)CNC(=O)[C@H](Cc3ccc(C(=O)O)cc3)NC(=O)[C@H](Cc3c[nH]c4ccccc34)NC2=O)cc1

Target: Recombinant human IL-1β (BioLegend 579404) (human, UniProt P01584 117-269)
Test: cell-based or functional assay

| MRC5 IC50 [nM] | Binder |
| --- | --- |
| 0.422 | B1 |
| 0.464 | B2 |
| 0.256 | B3 |
| 0.494 | B4 |
| 0.294 | B5 |

Target: Recombinant human IL-1β (BioLegend 579404) (human, UniProt P01584 117-269)
Test: cell-based or functional assay
Remark: another data set of the same source

| MRC5 IC50 [nM] | Binder |
| --- | --- |
| 0.0248 | B6 |
| 0.085 | B7 |
| 0.37 | B8 |
| 0.09 | B9 |
| 0.432 | B10 |
| 0.0457 | B11 |
| 0.636 | B12 |
| 0.064 | B13 |

Source: patent US20230406885A1, “CYCLIC PEPTIDES FOR TRAPPING INTERLEUKIN-1 BETA” (MERCK SHARP & DOHME LLC, priority 2022, published 2023)
